B1: SLC6A17 (parent)
chain: KAVEEELDAEDRPAWNSKLQYILA
B2: MATN2 (parent)
chain: VNVPGSFVCQCYSGYALAEDGKRC

Variants of: B1
Assay: protein stability index of a GFP-peptide fusion (GPS, HEK-293T) (PSI 1-6); higher = more stable
Settings: c terminus: a fixed tail appended
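Note: lentivirally expressed fusions sorted by FACS into six bins by GFP to DsRed ratio, PSI derived from sequencing read proportions per bin multiplied by bin number.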

Protein stability index of substitutions, site by site:
A9: C 2.65, N 2.83, T 2.82, K 3.15, M 1.73, F 1.95, Y 2.48, G 2.24, I 2.02, H 2.41, D 2.38, E 2.61, L 2.33, R 2.69, V 3.1, Q 2.44, P 2.54
A14: S 4.07, H 2.57, K 2.62, R 2.3, Y 2, E 3.08, V 2.38, P 2.46, F 2.18, G 2.35, I 2.5, L 1.99, T 3.2, D 3.38, Q 2.4, M 2.1, N 2.2
R12: T 3.82, Q 3.15, D 3.74, L 2.45, I 2.47, P 2.44, S 3.4, K 2.83, N 2.97, E 3.95, Y 2.2, W 2.19, G 2.32, H 2.41, V 2.54, M 2.19, F 1.76, A 3.54, C 2.8
E6: I 1.47, G 2.27, V 2.13, C 2.07, Y 2.65, H 2.55, M 1.5, P 2.53, A 1.86, Q 2.68, N 2.45, F 1.73, W 1.16, K 2.7, D 3.44, S 2.14, L 1.7, T 2.24, R 2.79
L7: V 2.9, Q 2.53, I 2.08, T 3.1, R 3.53, H 3.09, D 3.48, C 3.5, Y 2.51, F 2.23, K 2.85, P 3.64, G 4.11, M 2.98, N 3.42, E 3.21, S 3.61, A 3.74

Variants of: B2
Assay: as above
Settings: c terminus: a fixed tail appended

Protein stability index, by site and new letter:
K22: L 1.17, H 2.68, I 1.5, M 1.23, Q 1.49, N 3.34, P 2.08, T 2.6, C 3.96, A 2.6, G 2.43, E 2.03, W 1.9, Y 1.47, F 1.81, S 1.7, R 1.08
C24: I 2.22, T 2.13, G 2.18, A 1.73, E 1.94, N 2.72, F 1.83, V 3.76, H 2.9, Q 2.12, D 2.32, R 1.25, S 2.14, M 2.06, Y 2.41, L 1.86, K 2.5
D20: S 2.02, T 2.12, W 1.57, V 1.87, Y 1.05
G21: K 2.03, H 2.41, S 2.36, D 2.43, C 4.22, F 1.58, T 3.02, Q 2.75, E 1.84, I 1.99, R 2.08, Y 2.18, P 2.38, A 2, W 1.3, L 2.7, M 3.7, N 1.93, V 1.88
R23: C 2.74, K 2.99, W 1.64, E 2.78, D 2.78, S 2.35, G 2.56, H 1.62, I 1.67, Y 1.83, V 2.41, T 2.06, P 2.07, L 2.62, N 2.23, Q 3.67, M 2.32, F 1.69, A 2.16
